Experimental data taken from article PMC10809841, “Transferrin Is Up-Regulated by Microbes and Acts as a Negative Regulator of Immunity to Induce Intestinal Immunotolerance” (Research, 2024).

What was measured:
transferrin [1] = molecular target: T1, transferrin (UniProt P02787 20-698); experiment: not stated; direct binding of TC6 (Fig. S9C to E); method not given
T1 construct: transferrin (serotransferrin), the iron transporter of serum; probably the mature plasma protein; also called Tf; WT-Tf

transferrin [2] = molecular target: T1, transferrin; experiment: SPR; BIAcore 2000; transferrin coupled at a CM5 sensor chip, CD14 flowed over; details in the Supplementary Materials (not shown); conditions: both partners purified

T1 sequence (P02787 20-698): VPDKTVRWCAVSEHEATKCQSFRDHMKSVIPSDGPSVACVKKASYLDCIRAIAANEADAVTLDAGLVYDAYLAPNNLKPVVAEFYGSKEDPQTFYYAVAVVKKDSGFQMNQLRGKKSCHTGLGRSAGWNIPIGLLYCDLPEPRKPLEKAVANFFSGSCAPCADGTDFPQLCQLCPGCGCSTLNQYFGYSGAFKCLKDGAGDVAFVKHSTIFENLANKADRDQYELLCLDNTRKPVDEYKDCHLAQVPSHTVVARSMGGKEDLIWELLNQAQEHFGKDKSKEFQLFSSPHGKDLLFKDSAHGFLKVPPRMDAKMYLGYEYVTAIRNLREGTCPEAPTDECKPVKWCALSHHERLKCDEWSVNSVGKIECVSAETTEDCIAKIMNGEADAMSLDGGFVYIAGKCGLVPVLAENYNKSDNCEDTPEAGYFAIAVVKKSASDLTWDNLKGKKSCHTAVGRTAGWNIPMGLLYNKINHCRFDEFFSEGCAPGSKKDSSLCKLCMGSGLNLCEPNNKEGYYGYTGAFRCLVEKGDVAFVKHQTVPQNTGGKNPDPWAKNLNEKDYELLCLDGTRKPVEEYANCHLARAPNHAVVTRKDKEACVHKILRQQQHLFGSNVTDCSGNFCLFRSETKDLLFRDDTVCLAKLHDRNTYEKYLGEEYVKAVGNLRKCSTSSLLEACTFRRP

Row | Kd (transferrin [1]) [nM] | Kd (transferrin [2]) [nM] | koff (transferrin [2]) [s⁻¹] | kon (transferrin [2]) [M⁻¹ s⁻¹] | Binder
1 | 13 |  |  |  | TTPEPC (designed peptide TC6; also called interference peptide TC6) [peptide TC6]
2 |  | 14 | 0.00033 | 24000 | cluster of differentiation 14 (CD14) (receptor, UniProt P08571 20-345, looked up, CD14, TLR coreceptor; isolated protein used in SPR and native gel; Probably a soluble recombinant CD14; also called WT-CD14; wild-type CD14) TTPEPCELDDEDFRCVCNFSEPQPDWSEAFQCVSAVEVEIHAGGLNLEPFLKRVDADADPRQYADTVKALRVRRLTVGAAQVPAQLLVGALRVLAYSRLKELTLEDLKITGTMPPLPLEATGLALSSLRLRNVSWATGRSWLAELQQWLKPGLKVLSIAQAHSPAFSCEQVRAFPALTSLDLSDNPGLGERGLMAALCPHKFPAIQNLALRNTGMETPTGVCAALAAAGVQPHSLDLSHNSLRATVNPSAPRCMWSSALNSLNLSFAGLEQVPKGLPAKLRVLDLSCNRLNRAPQPDELPEVDNLTLDGNPFLVPGTALPHEGSMN
